# Source: the Human Domainome abundance scans (Beltran et al. 2025)
# ± gives the uncertainty stated by the source.
# B1: Zinc finger homeobox protein 4, residues 2086 to 2141; numbered along this chain, Q86UP3 (parent)
# chain: RPRTRITDDQLKILRAYFDINNSPSEEQIQEMAEKSGLSQKVIKHWFRNTLFKERQ
# Variants of: B1
# Assay: abundance fitness (aPCA) (normalised: wild type 0, dead -1); higher = more abundant; growth selection in yeast, the domain comes from the species named
# Details: Homo sapiens
row,Variant,abundance fitness
1,Y17G,-0.075 ± 0.088
2,Y17D,-0.16 ± 0.11
3,Y17I,-0.155 ± 0.085
4,Y17N,0.041 ± 0.088
5,Y17V,-0.204 ± 0.079
6,Y17T,-0.058 ± 0.088
7,Y17H,-0.045 ± 0.08
8,Y17R,-0.114 ± 0.078
9,Y17S,-0.227 ± 0.072
10,Y17P,-0.963 ± 0.12
11,Y17W,-0.299 ± 0.097
12,Y17C,-0.192 ± 0.08
13,Y17A,-0.16 ± 0.091
14,Y17L,-0.159 ± 0.065
15,Y17Q,-0.089 ± 0.1
16,Y17F,0.025 ± 0.088
17,Y17M,0.076 ± 0.1
18,T4L,-0.011 ± 0.081
19,T4R,-0.413 ± 0.076
20,T4Q,-0.284 ± 0.13
21,T4W,-1.16 ± 0.16
22,T4S,-0.198 ± 0.077
23,T4N,0.123 ± 0.13
24,T4I,-0.048 ± 0.11

row,Variant,abundance fitness
1,T4P,-0.139 ± 0.12
2,T4H,0.01 ± 0.17
3,T4V,-0.116 ± 0.078
4,T4M,0.224 ± 0.11
5,T4K,-0.329 ± 0.15
6,K12G,-0.146 ± 0.068
7,K12N,-0.007 ± 0.11
8,K12R,-0.039 ± 0.065
9,K12Q,-0.029 ± 0.11
10,K12E,-0.076 ± 0.1
11,K12I,-0.094 ± 0.15
12,K12C,-0.112 ± 0.099
13,K12V,-0.045 ± 0.075
14,K12D,-0.212 ± 0.12
15,K12P,-0.16 ± 0.093
16,K12Y,-0.422 ± 0.13
17,K12H,-0.34 ± 0.13
18,K12M,-0.071 ± 0.091
19,K12L,0.005 ± 0.073
20,K12A,-0.137 ± 0.084
21,K12S,-0.09 ± 0.081
22,K12W,-0.379 ± 0.082
23,T7W,-0.774 ± 0.38
24,T7H,-0.344 ± 0.096

row,Variant,abundance fitness
1,T7A,0.02 ± 0.12
2,T7V,-0.217 ± 0.1
3,T7R,-0.054 ± 0.12
4,T7M,0.038 ± 0.12
5,T7D,0.174 ± 0.14
6,T7L,-0.271 ± 0.079
7,T7Q,-0.42 ± 0.17
8,T7C,-0.337 ± 0.14
9,T7S,-0.125 ± 0.083
10,T7Y,-0.491 ± 0.093
11,T7N,-0.038 ± 0.092
12,T7K,-0.344 ± 0.23
13,T7P,-0.241 ± 0.1
14,T7F,-0.352 ± 0.1
15,T7E,0.082 ± 0.19
16,T7I,-0.288 ± 0.081
17,N22V,0.05 ± 0.45
18,N22S,0.281 ± 0.23
19,N22R,0.071 ± 0.2
20,N22I,0.204 ± 0.33
21,N22H,-0.359 ± 0.23
22,N22G,0.014 ± 0.27
23,N22P,0.201 ± 0.24
24,N22D,-0.182 ± 0.25

row,Variant,abundance fitness
1,N22C,-0.178 ± 0.29
2,I13A,-0.372 ± 0.084
3,I13T,0.043 ± 0.11
4,I13V,-0.027 ± 0.076
5,I13Y,-0.027 ± 0.21
6,I13R,-0.223 ± 0.074
7,I13L,-0.08 ± 0.072
8,I13D,-0.289 ± 0.15
9,I13W,-0.136 ± 0.082
10,I13F,-0.13 ± 0.19
11,I13Q,0.026 ± 0.11
12,I13S,-0.218 ± 0.088
13,I13G,-0.347 ± 0.076
14,I13E,-0.17 ± 0.12
15,I13H,-0.333 ± 0.14
16,I13P,-0.612 ± 0.14
17,I13M,-0.057 ± 0.084
18,I13K,-0.062 ± 0.12
19,R15I,-0.296 ± 0.16
20,R15T,-0.065 ± 0.088
21,R15H,-0.337 ± 0.15
22,R15E,-0.098 ± 0.089
23,R15K,0.018 ± 0.093
24,R15C,-0.414 ± 0.13

row,Variant,abundance fitness
1,R15M,0.138 ± 0.093
2,R15V,-0.151 ± 0.073
3,R15Q,0.022 ± 0.093
4,R15L,-0.081 ± 0.072
5,R15N,-0.07 ± 0.15
6,R15Y,-0.2 ± 0.11
7,R15G,-0.093 ± 0.07
8,R15F,-0.245 ± 0.16
9,R15S,-0.012 ± 0.082
10,R15W,-0.133 ± 0.081
11,R15P,-0.939 ± 0.12
12,R15D,-0.168 ± 0.11
13,R15A,-0.215 ± 0.076
14,L11I,-0.14 ± 0.13
15,L11W,-0.205 ± 0.077
16,L11H,-0.165 ± 0.11
17,L11F,-0.134 ± 0.086
18,L11G,-0.172 ± 0.065
19,L11D,-0.069 ± 0.13
20,L11M,-0.148 ± 0.11
21,L11C,-0.392 ± 0.096
22,L11Q,-0.147 ± 0.1
23,L11A,-0.193 ± 0.069
24,L11S,-0.043 ± 0.073

row,Variant,abundance fitness
1,L11Y,0.155 ± 0.13
2,L11R,-0.026 ± 0.069
3,L11K,0.138 ± 0.11
4,L11N,-0.024 ± 0.17
5,L11T,-0.115 ± 0.087
6,L11E,0.059 ± 0.097
7,L11V,-0.18 ± 0.074
8,L11P,-0.769 ± 0.11
9,Q10Y,-0.498 ± 0.13
10,Q10E,-0.383 ± 0.092
11,Q10W,-0.817 ± 0.1
12,Q10A,-0.461 ± 0.076
13,Q10P,-0.819 ± 0.13
14,Q10D,-0.125 ± 0.12
15,Q10I,-0.462 ± 0.12
16,Q10S,-0.172 ± 0.076
17,Q10R,-0.526 ± 0.078
18,Q10N,-0.099 ± 0.19
19,Q10F,-0.616 ± 0.19
20,Q10G,-0.514 ± 0.068
21,Q10T,-0.245 ± 0.092
22,Q10C,-0.277 ± 0.11
23,Q10M,-0.323 ± 0.11
24,I20L,-0.051 ± 0.081

row,Variant,abundance fitness
1,I20R,-0.007 ± 0.067
2,I20Q,0.054 ± 0.1
3,I20V,0.008 ± 0.069
4,I20P,0.022 ± 0.11
5,I20Y,-0.113 ± 0.12
6,I20H,-0.134 ± 0.12
7,I20D,-0.276 ± 0.11
8,I20K,0.153 ± 0.11
9,I20A,0.105 ± 0.079
10,I20M,-0.007 ± 0.13
11,I20G,-0.03 ± 0.066
12,I20C,-0.095 ± 0.084
13,I20F,-0.006 ± 0.09
14,I20W,-0.273 ± 0.09
15,I20E,0.015 ± 0.12
16,I20N,0.03 ± 0.11
17,I20T,0.077 ± 0.12
18,F18T,0.014 ± 0.1
19,F18I,-0.313 ± 0.1
20,F18P,-0.224 ± 0.098
21,F18D,-0.227 ± 0.098
22,F18K,-0.044 ± 0.15
23,F18W,-0.142 ± 0.086
